Laboratory results from patent US20260035452A1 (THE UNIVERSITY OF BIRMINGHAM, priority 2022, published 2026).
Marks after values point to notes of the source that are not given here.

Assay: Haematological investigations
Type: in vivo
Conditions: mice, 100 μg/mouse
Procedure: To assess the neutralising activity of Ab-IPL-IL-17™, CD-1 mice were injected i.p. with 100 μg/mouse of Ab-IPL-IL-17™, MAB421 or secukinumab as positive controls. After 30 min, an i.p. injection of 10 μg/mouse of IL-17A, IL-17F or IL-17A/F heterodimer was administered. After 2 h blood was collected by intracardiac puncture and serum levels of (A) IL-17A, (B) IL-17F or (C) IL-17A/F heterodimer were quantified by Elisa. (C-F) For the evaluation of immunogenic effects CD-1 mice were injected i.p. with 100 μg of IgG1 isotype antibody (vehicle) or IL-17 neutralising antibodies (bimekizumab, secukinumab, MAB421 or Ab-IPL-IL-17™). In the selected time-point (2 h, 24 h, 72 h, 7 days, 14 days and 21 days) total IgG, IgG1, lymphocytes and platelets levels were determined by Elisa and haematological blood count test, respectively. Data are presented as mean±S.D. for n=5 mice per group. Statistical analysis was conducted by one or two-way ANOVA followed by Bonferroni's for multiple comparisons. *P≤0.05, **P≤0.01, ***P≤0.001 vs IL-17 group; ^#P≤0.05, ^##P≤0.01, ^###P≤0.001, ^####P≤0.0001 vs vehicle group.
(§1) Standard laboratory procedures were used for blood sampling and measurements (95). Haematological investigations, for all experimental conditions, including blood count test, leukocyte, and sidereal formula were performed on citrated and not-anticoagulated blood samples, respectively. Serological tests were performed by CELL-DYN Sapphire purchased from Abbott S.R.L. (Milan, Italy). All procedures were conducted under strictly aseptic conditions.
as §1, with “measurements.” for “measurements (95).”

Bimekizumab: IL-17 neutralising antibody (reference)
GRA (Granulocytes) (2 h): 0.24 ± 0.11 10^3/μL | HCT (Hematocrit) (2 h): 29.96 ± 2.29% | HGB (Hemoglobin) (2 h): 9.88 ± 1.02 g/dL | MCH (Mean Corpuscular Hemoglobin) (2 h): 16.98 ± 1.38 pg | MCV (Mean Cell Volume) (2 h): 61.22 ± 5.70 fL | MHCH (2 h): 30.00 ± 3.06 g/dL | MID (2 h): 0.36 ± 0.24 10^3/μL | MPV (Mean Platelet Volume) (2 h): 4.64 ± 0.86 fL | PCT (Plateletcrit) (2 h): 0.26 ± 0.07% | PWD (Platelet Distribution Width) (2 h): 16.80 ± 1.42% | RBC (Red Blood Cells) (2 h): 5.84 ± 1.62 10^6/μL | RDW (Red blood cells Distribution Width) (2 h): 18.82 ± 1.75% | WBC (White Blood Cells) (2 h): 3.90 ± 0.91 10^3/μL | GRA (Granulocytes) (24 h): 0.22 ± 0.16 10^3/μL | HCT (Hematocrit) (24 h): 29.56 ± 2.16% | HGB (Hemoglobin) (24 h): 9.08 ± 1.55 g/dL | MCH (Mean Corpuscular Hemoglobin) (24 h): 18.92 ± 1.42 pg | MCV (Mean Cell Volume) (24 h): 62.32 ± 10.33 fL | MHCH (24 h): 30.70 ± 3.18 g/dL | MID (24 h): 0.42 ± 0.31 10^3/μL | MPV (Mean Platelet Volume) (24 h): 5.00 ± 1.12 fL | PCT (Plateletcrit) (24 h): 0.26 ± 0.06% | PWD (Platelet Distribution Width) (24 h): 16.04 ± 1.30% | RBC (Red Blood Cells) (24 h): 4.63 ± 0.99 10^6/μL | RDW (Red blood cells Distribution Width) (24 h): 18.42 ± 1.18% | WBC (White Blood Cells) (24 h): 4.60 ± 1.70 10^3/μL | GRA (Granulocytes) (72 h): 0.30 ± 0.10 10^3/μL | HCT (Hematocrit) (72 h): 22.04 ± 4.37** % | HGB (Hemoglobin) (72 h): 7.10 ± 1.38* g/dL | MCH (Mean Corpuscular Hemoglobin) (72 h): 21.46 ± 2.04* pg | MCV (Mean Cell Volume) (72 h): 80.98 ± 9.17 fL | MHCH (72 h): 30.62 ± 5.57 g/dL | MID (72 h): 0.42 ± 0.22 10^3/μL | MPV (Mean Platelet Volume) (72 h): 7.96 ± 1.95**** fL | PCT (Plateletcrit) (72 h): 0.17 ± 0.03% | PWD (Platelet Distribution Width) (72 h): 17.94 ± 2.99% | RBC (Red Blood Cells) (72 h): 3.79 ± 1.02* 10^6/μL | RDW (Red blood cells Distribution Width) (72 h): 17.12 ± 2.05% | WBC (White Blood Cells) (72 h): 4.84 ± 2.49 10^3/μL | GRA (Granulocytes) (7 d): 0.26 ± 0.11 10^3/μL | HCT (Hematocrit) (7 d): 22.48 ± 3.74* % | HGB (Hemoglobin) (7 d): 8.10 ± 1.33 g/dL | MCH (Mean Corpuscular Hemoglobin) (7 d): 21.22 ± 3.74 pg | MCV (Mean Cell Volume) (7 d): 72.78 ± 8.77 fL | MHCH (7 d): 29.36 ± 5.05 g/dL | MID (7 d): 0.46 ± 0.18 10^3/μL | MPV (Mean Platelet Volume) (7 d): 6.78 ± 1.09* fL | PCT (Plateletcrit) (7 d): 0.22 ± 0.07% | PWD (Platelet Distribution Width) (7 d): 16.04 ± 2.71% | RBC (Red Blood Cells) (7 d): 4.18 ± 0.93 10^6/μL | RDW (Red blood cells Distribution Width) (7 d): 18.14 ± 3.00% | WBC (White Blood Cells) (7 d): 5.08 ± 1.37 10^3/μL | GRA (Granulocytes) (14 d): 0.20 ± 0.12 10^3/μL | HCT (Hematocrit) (14 d): 28.36 ± 3.19% | HGB (Hemoglobin) (14 d): 9.06 ± 1.84 g/dL | MCH (Mean Corpuscular Hemoglobin) (14 d): 17.48 ± 1.38 pg | MCV (Mean Cell Volume) (14 d): 61.10 ± 9.83 fL | MHCH (14 d): 29.96 ± 4.45 g/dL | MID (14 d): 0.40 ± 0.10 10^3/μL | MPV (Mean Platelet Volume) (14 d): 5.66 ± 0.92 fL | PCT (Plateletcrit) (14 d): 0.26 ± 0.05% | PWD (Platelet Distribution Width) (14 d): 16.02 ± 1.63% | RBC (Red Blood Cells) (14 d): 5.81 ± 1.41 10^6/μL | RDW (Red blood cells Distribution Width) (14 d): 18.26 ± 2.28% | WBC (White Blood Cells) (14 d): 3.00 ± 0.68 10^3/μL | GRA (Granulocytes) (21 d): 0.22 ± 0.13 10^3/μL | HCT (Hematocrit) (21 d): 29.20 ± 2.70% | HGB (Hemoglobin) (21 d): 10.06 ± 1.27 g/dL | MCH (Mean Corpuscular Hemoglobin) (21 d): 17.96 ± 1.57 pg | MCV (Mean Cell Volume) (21 d): 62.92 ± 6.53 fL | MHCH (21 d): 30.50 ± 4.52 g/dL | MID (21 d): 0.32 ± 0.16 10^3/μL | MPV (Mean Platelet Volume) (21 d): 5.02 ± 0.76 fL | PCT (Plateletcrit) (21 d): 0.28 ± 0.03% | PWD (Platelet Distribution Width) (21 d): 16.24 ± 1.83% | RBC (Red Blood Cells) (21 d): 6.37 ± 1.11 10^6/μL | RDW (Red blood cells Distribution Width) (21 d): 18.02 ± 1.34% | WBC (White Blood Cells) (21 d): 3.32 ± 1.18 10^3/μL
